Experimental data as given in the DeepSol protein solubility set.

Test: soluble on expression in E. coli; label from the status in PepcDB or PDB records

Sequence | soluble on expression in E. coli
MGSDKIHHHHHHMNYNKLSSATIQGIEAMKIDVEVDFDNRSVFNDIDVVGLGDTAVKESRKRVKSAILNSGFSLPHGKYVVNLAPGDVRKEGSMLDLPIALCILASTGIVQVSENILAIGELSLNGEVKRVNGVLPVLLSLSEMFSGTVLIPKENEEEAKCVKELDIYAVESLRECVEFLRGDRTLKRIEYSGIENTNLEYEIDFSDVRDHEMVKRAVEIAVAGFHNILMVGNPGSGKTMIAKRIPTIFPPMSEEEILETSKVYSASGYPGIVKLRPFRAPHHTASTVSIIGGGTNPRPGEISLAHNGVLFLDELPEFKRDVLEALRQPLEEGIVTVARAKFTVTYPARFMLVGAMNPCPCGNLGDPKQPCVCSPRDIMRYRKKISGPLLDRMDLVINVPKLSFEEMMKKPEGEKSSSIRERVMKAREIQKRRFRDTHISCNSQMSHRMLRRFVQLDEKSEDLLKRYVERYGLSGRKIDKVLKISRTIADLEGSNGVEMSHLAEALQYRFRES | not soluble
GMSAGQSSLSFAHGDETHPIEQKAFIGVDSAAGNVVKQFHAALQMGNEAIVRQSLAANVQIYEGGKVERSLTEYANHHMLADMAYLKGLTITPKEHQITITGDIAISTSISHAQGEYKGKSIDSMTMETLVLIKQADGRWKITHVHWS | soluble
NSAAIWGEGDVSALQSDTESGAYIEESSMVAADPLADYLSKPKLEALIASTKKQMLAAAKELDFLEAARLRDEAARLEKKLEQLTA | not soluble
MGVMKGIEFSESKLKEILDQLPIEAQSAFAASCAQRIFTCYVEYARVAKSKKVDLDAYSEAISYVWNAVIAGNHDAIILNGLLERCMAVLPSEEDAWESGTPYAEDAAAAIIYSLRSLASGCPQEAIWAAKRVYEAVDNFVVNTYNVNTNATDGEKFILDHPIVSNELSRQLRDLNEIINSKRDSESLKKTIKIIMERSKSESNDLFSEAT | not soluble
QTVQSTSKGSDYIVAVTACTTGIAHTYMAEEALKKKAAEMGVGIKVETNGASGVGNKLTSSDIARAKGVIIAADKAVEMDRFDGKPLVSRPVADGIKKSEDLINIILDNKAQTY | not soluble
MGHHHHHHSHELLVVGSRPELGRWEPRGAVRLRPAGTAAGDGALALQEPGLWLGEVELAAEEAAQDGAEPGRVDTFWYKFLKREPGGELSWEGNGPHHDRCCTYNENNLVDGVYCLPIGHWIEATGHTNEMKHTTDFYFNIAGHQAMHYSRILPNIWLGSCPRQVEHVTIKLKHELGITAVMNFQTEWDIVQNSSGCNRYPEPMTPDTMIKLYREEGLAYIWMPTPDMSTEGRVQMLPQAVCLLHALLEKGHIVYVHCNAGVGRSTAAVCGWLQYVMGWNLRKVQYFLMAKRPAVYI | not soluble
MSLSPVPPPLVRVAPSLFLGSARAAGAEEQLARAGVTLCVNVSRQQPGPRAPGVAELRVPVFDDPAEDLLAHLEPTCAAMEAAVRAGGACLVYCKNGRSRSAAVCTAYLMRHRGLSLAKAFQVGGPLGGRCFERGVSSGDEFSGRGRLRDWDRHFREGRVSLMVKSARPVAEPNPGFWSQLQKYEEALQAQSEGHHHHHH | not soluble
MGSDKIHHHHHHMLKVDPTSPELSILLANPRGFCAGVDRAISIVERALELFEPPIYVRHEVVHNRYVVENLKQRGALFIDELDQVPDNSIVIFSAHGVSQAVRKEAKNRGLKVFDATCPLVTKVHLQVTRASRKGIECILIGHEGHPEVEGTMGQYDNPKGGVYLIESPEDVNNLQVNNPDNLCFVTQTTLSVDDTLDIITALQKRFPSIEGPRKDDICYATQNRQDAVRSMSSEVDLLIVVGSKNSSNSNRLRELAEKTGTQSYLVDTAADVEAMWFDGVKKVAVTAGASAPEVLVQQVVNAIAKLAPSIITEVEGRKEDTVFAVPAELR | not soluble
MGKVILVTGVSRGIGKSIVDVLFSLDKDTVVYGVARSEAPLKKLKEKYGDRFFYVVGDITEDSVLKQLVNAAVKGHGKIDSLVANAGVLEPVQNVNEIDVNAWKKLYDINFFSIVSLVGIALPELKKTNGNVVFVSSDACNMYFSSWGAYGSSKAALNHFAMTLANEERQVKAIAVAPGIVDTDMQVNIRENVGPSSMSAEQLKMFRGLKENNQLLDSSVPATVYAKLALHGIPDGVNGQYLSYNDPALADFMP | soluble
MTDQVFGKVSKVVCVGAGYVGGPTCAMIAHKCPHITVTVVDMNTAKIAEWNSDKLPIYEPGLDEIVFAARGRNLFFSSDIPKAIAEADLIFISVNTPTKMYGRGKGMAPDLKYVESVSRTIAQYAGGPKIVVEKSTVPVKAAESIGCILREAQKNNENLKFQVLSNPEFLAEGTAMKDLANPDRVLIGGESSPEGLQAVAELVRIYENWVPRNRIITTNTWSSELSKLVANAFLAQRISSINSISAVCEATGAEISEVAHAVGYDTRIGSKFLQASVGFGGSCFQKDVLSLVYLCESLNLPQVADYWQGVININNWQRRRFADKIIAELFNTVTDKKIAIFGFAFKKNTGDTRESSAIHVIKHLMEEHAKLSVYDPKVQKSQMLNDLASVTSAQDVERLITVESDPYAAARGAHAIVVLTEWDEFVELNYSQIHNDMQHPAAIFDGRLILDQKALREIGFRTFAIGTSPDQAYNLFGTAGY | soluble
MGSDKIHHHHHHMSKKVVVTGANGYIGAHLIAELQKHSQHFQTIAVDIDDKYIPKGVTFVSMDLLNEARKETLYKECGEPDICVHLAWRDGFQHNALSHIDDLPCHFHFLKNLADHGTTHFAIAGSFREYGSVNGMVDQDAVVIPDNFYTLAKSMLKQALEIYFKEKNICLQWLRPFTVYGNDSRNNSIMSKIIRWEDEGKQSFPFTSGNEEYDYVSVYEVARQIAAVISQREVDGIIDCCTGKPTRLGDKIEGFIRENHFKIRPEYGAFPKREYDSSVIYGDNRKITEIIKKCILF | not soluble
MGSDKIHHHHHHMKLPTNSILISLKIGIVSDGQYGERAFEQIRRRFPTEWILLPYPSSPVVDEIELTIPPCDLYISYLRHPDIAMELIRTGIPALLGINLGPGFIAQAHEFNPAVIGPETMCSVLPNTKFCQVNEYAKVFGRPVFYLVMDGDRIVWCKTIRGSPCGSTDAAASEISGQILDQEALSRFALSICHNCRAPRFGKTCDKEKAGIIHLEELMRALKGVNPKKWEELIQVLEKIGCSFPNE | not soluble
MAHHHHHHMLRSTLTSLNTFLTSSVATPPISVIRTGPKWWADPERMVRQKLMYFTLGVDQLPLRRTAVIQRDLQRFHMCKPPPRVGDSTGYKRSRAAQLNTWYRRIQYQEYHMQHLFTRHVWGLLRVYPGNTTKIQGKADDGYVGYDSVPFHRYNRAPLPFPARELYERRK | not soluble
QDSPNAIKAAVISSPMLGFYSGLLPKSIAKILVAIKLKFNNIISNTPWYFLGQKDYSPVNFTDNKLTHSIPRYQYFVDLYKKNKIIQLGGVTTHWLAQSIAAQKELFSKIVQLKTPILLLQASGDTVVCQQAQDDFCQQLHTLQPQSCPNGVPSNIDNAFHELFFETDDLRNKAITQSLAWFEQH | not soluble
MKYVIGIDGGGSKTHMKISTLDYKVLLEVFKGPSNINSSTKEEVKRVLQELIMEGLGKLGQSLEECSAICIGTAGADRTEDKSIIEDMIRSLGYMGKIIVVNDAEIALAGGIEKREGIIVISGTGSICYGRNKEGRSARSGGWGHIIGDEGSGYDIGIKAIKAALKSFDKRGEKTILEGDILDFLKLKSHEDLINYIYRSGVTKKEIASLTRVVNSAYIKGDLVSKRILKEAARELFLSVKAVVEVLSMQNKKVVLTTAGGVINNINYLYDEFRKFLNLNYPKVKIISMKNDSAFGAVIIARSECDMAGDPLEHHHHHH | not soluble
MSLRLHFHTQEMPMPALLYKADPARAERWRVLFAEHAPDIEWRVWPDIGDPADIHYLGAWLAPDDLQDLLPNLKVLFALSAGVDQLDLSRIPKSLPVVRLLDPGISHGMCEYASFAVLSLHREMLRYRQQQVEGLWKAQPLIPANKRRVGVMGLGLQAQHILSSLKPFGFQLSGWARSAHQVEGVTCYAGEEQLSEFLGQCDILLCVLPLTAQTEGILNRQLFERLPEGAALINMGRGGHLVEADLLEALDSGQLSAAVLDVLQQEPAPADHPFWQHPKILLTPHVAAMTQPESAFPGLLDNIRRFERGEAMQGQVNRGEGHHHHHH | soluble
MVDQATLDKLEAGFKKLQEASDCKSLLKKHLTKDVFDSIKNKKTGMGATLLDVIQSGVENLDSGVGIYAPDAESYRTFGPLFDPIIDDYHGGFKLTDKHPPKQWGDINTLVGLDPAGQFIISTRVRCGRSLQGYPFNPCLTAEQYKEMEEKVSSTLSSMEDELKGTYYPLTGMSKATQQQLIDDHFLFKEGDRFLQTANACRYWPTGRGIFHNDAKTFLVWVNEEDHLRIISMQKGGDLKTVYKRLVTAVDNIESKLPFSHDDRFGFLTFCPTNLGTTMRASVHIQLPKLAKDRKVLEDIASKFNLQVRGTRGEHTESEGGVYDISNKRRLGLTEYQAVREMQDGILEMIKMEKAAA | soluble
MERPLARNEVTRLGPDSKFHHAGLRRGLSPATLRKLDAISRLRVFPRDAVVVPQGGALEYVGNVVRGVLRMERLLSDGRSQIVGLLVPTDMFGRVFSERSDYSVEAATEVTLCCFERHAFEALVRTCPDLEHAVLLAVLDELDAAREWITLRAGPTVAARLATYLLMLCRRWPHQTSELTQDAKRIVVNVPIARNDLAHYLGTTVESISRAVQAFSRDGIISILTPLRFEILDLPALIALSDNEEFDAHALLEGLREEQRVSP | not soluble
KRLQKKIDNGELDSFPEVKEVDVECCGQHEVCERDSLLAAVSKQIEYYDDEELDTFIGRAPEDYTPEEADKFRDVFYTMQDTDVAGWVRSLQLRGISLPDEIKDEVFLVVGERRIH | not soluble
MEEEEYEQIPQENPPEELSQDPVLELSGGLREKEQKTPRRLRLILMGKTGSGKSATGNSILGRDVFESKLSTRPVTKTSQRRSREWAGKELEVIDTPNILSPQVSPEVADAICQAIVLSAPGPHAVLLVTQLGRFTDEDQQVVRRLQEVFGVGVLGHTILVFTRKEDLAGGSLEDYVRETNNQALAWLDVTLARRHCGFNNRAQGEEQEAQLRELMEKVEAIMWENEGDYYSNKAYQYTQQNFRLKELQERQVSQGQGSEDVPGEESWLEGLSQIQKESEEAHRCLLGKADL | soluble
MGGMPITSFKFLYYFQIDDGDEETDIYLSPKEKATQTFSIKYNNNNTPTFSGDLRAGEKYTFDFHINFYDFATITIVQKREGEEELRIEYLNIPVEKRSEDHFERHF | not soluble
MGSDKIHHHHHHMSLKFDFSNLFEPNISGGLTDEDVKSVEEKVTSAVRNFVENTPDFAKLDRSWIDSVKSLEDWIINFDTVVVLGIGGSGLGNLALHYSLRPLNWNEMTREERNGYARVFVVDNVDPDLMSSVLDRIDPKTTLFNVISKSGSTAEVMATYSIARGILEAYGLDPREHMLITTDPEKGFLRKLVKEEGFRSLEVPPGVGGRFSVLTPVGLLSAMAEGIDIDELHEGAKDAFEKSMKENILENPAAMIALTHYLYLNKGKSISVMMAYSNRMIYLVDWYRQLWAESLGKRYNLKGEEVFTGQTPVKALGATDQHSQIQLYNEGPNDKVITFLRVENFDREIVIPETGRAELSYLARKKLSELLLAEQTGTEEALRENNRPNMRVTFDGLTPYNVGQFFAYYEAATAFMGYLLEINPFDQPGVELGKKITFALMGREGYTYEIKERSKKVIIE | soluble
MVDRFGDVLREWRQLRRMSQMDLGLSAGVSPRHISFLESGRALPSRGMVLRLCDELEVPGGARNRWLTSAGLAPAYHSRNGDAPEMAPLTQAVDWMLSRHAPYPAMAVDRHWRLKTMNRPARAMFAATGLGAGDGLIDALLDNPALAAALENRDEVERLSLTRLRTELAHFGRDPVLEQAVARLAERVARQPGAADAPMPAVIPARYRLGEAVLSFFTTITQFGATGDIAMSELRIEMFFPADDATRQMVEALWGNATPGN | not soluble
